Biological target: BST-2 with N-terminal SmBiT (UniProt Q10589)
Assay: split reporter (BiFC, NanoBiT); HEK293T cells in 96-well plates co-transfected 1:1 with plasmids for the Vpu and BST-2 LgBiT/SmBiT fusions; Nano-Glo Live Cell Substrate added, luminescence read in live cells; negative control HaloTag with SmBiT

Sequence of Vpu with C-terminal LgBiT (P05919 whole entry): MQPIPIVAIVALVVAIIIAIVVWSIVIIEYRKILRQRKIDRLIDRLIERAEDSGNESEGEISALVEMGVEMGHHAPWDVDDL
Sequence of UniProt Q10589 (Q10589 1-161): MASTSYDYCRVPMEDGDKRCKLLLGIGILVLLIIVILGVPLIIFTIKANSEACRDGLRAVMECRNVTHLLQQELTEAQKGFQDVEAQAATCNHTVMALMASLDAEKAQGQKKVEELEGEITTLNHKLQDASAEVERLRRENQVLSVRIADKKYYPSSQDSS

Work on “Vpu with C-terminal LgBiT (from UniProt P05919 1-82) (natural protein)” yielded a fold luminescence over control 15 min after adding substrate of 100 fold and a fold luminescence over control (Vpu with C-terminal LgBiT and HaloTag with SmBiT) of 95 fold.
